# Measurements taken from patent US20260209386A1 (MYTHIC THERAPEUTICS, published 2026).
# Substitutions are numbered along the chain they refer to.
# T1: Human PTK7 Protein, His Tag, Acro Biosystems (human, UniProt Q13308 31-704)
# T1 construct: Bought recombinant protein; also called CCK4; not shown: His tag
# T1 sequence: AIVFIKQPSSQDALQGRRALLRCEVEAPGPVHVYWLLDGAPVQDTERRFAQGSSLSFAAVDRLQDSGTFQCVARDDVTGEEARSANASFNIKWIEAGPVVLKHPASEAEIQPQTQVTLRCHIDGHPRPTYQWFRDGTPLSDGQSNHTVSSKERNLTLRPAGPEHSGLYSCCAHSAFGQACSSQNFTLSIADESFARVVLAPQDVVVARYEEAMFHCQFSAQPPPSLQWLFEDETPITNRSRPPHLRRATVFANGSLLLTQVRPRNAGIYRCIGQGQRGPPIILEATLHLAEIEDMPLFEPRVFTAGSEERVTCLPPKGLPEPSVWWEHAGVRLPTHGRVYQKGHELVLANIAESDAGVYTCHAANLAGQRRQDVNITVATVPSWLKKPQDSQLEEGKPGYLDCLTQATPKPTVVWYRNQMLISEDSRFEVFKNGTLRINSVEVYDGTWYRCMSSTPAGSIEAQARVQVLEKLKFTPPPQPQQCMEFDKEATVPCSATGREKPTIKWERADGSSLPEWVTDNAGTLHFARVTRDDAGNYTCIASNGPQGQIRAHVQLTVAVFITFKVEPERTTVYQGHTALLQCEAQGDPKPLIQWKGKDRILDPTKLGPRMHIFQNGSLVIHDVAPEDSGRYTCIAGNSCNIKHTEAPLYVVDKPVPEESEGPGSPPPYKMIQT
# T2: Human PTK7 Protein, His Tag (Acro Biosystems) (human, UniProt Q13308 31-704)
# T2 construct: Bought His-tagged protein; also called CCK4; not shown: His tag
# T2 sequence: T1 sequence
# B1: MYT11102 (antibody, V domains shown)
# VH: EVQLVESGGGLVQPGGSLRLSCTASHFSLSTYAMSWVRQAPGKGLEWVGMIYINDNTYYASWAKGRFTISRDTSKNTVYLQMNSLRAEDTAVYFCARDIGISYYIGVSLWGQGTLVTVSS
# VL: EIVMTQSPSTLSASVGDRVIITCQASQSIGTRLSWYQQKPGKAPKLLIYGASKLATGVPSRFSGSGSGAEFTLTISSLQPDDFATYYCLGEYSYTTTDGIAFGQGTKLTVL
# notes: MYT9412 HC variant
# B2: MYT11124 (antibody, V domains shown)
# VH: B1 VH with H26G, W62H
# VL: B1 VL
# notes: MYT9412 HC variant
# B3: MYT11129 (antibody, V domains shown)
# VH: B1 VH with H26G, R97H
# VL: B1 VL
# notes: MYT9412 HC variant
# B4: MYT11104 (antibody, V domains shown)
# VH: B1 VH with H26G, S28H
# VL: B1 VL
# notes: MYT9412 HC variant
# B5: MYT11116 (antibody, V domains shown)
# VH: B1 VH with H26G, N54H
# VL: B1 VL
# notes: MYT9412 HC variant
# B6: MYT11109 (antibody, V domains shown)
# VH: B1 VH with H26G, A33H
# VL: B1 VL
# notes: MYT9412 HC variant
# B7: MYT11140 (antibody, V domains shown)
# VH: B1 VH with H26G, S108H
# VL: B1 VL
# notes: MYT9412 HC variant
# B8: MYT11139 (antibody, V domains shown)
# VH: B1 VH with H26G, V107H
# VL: B1 VL
# notes: MYT9412 HC variant
# B9: MYT11145 (antibody, V domains shown)
# VH: B1 VH with H26G
# VL: B1 VL with Q24H
# notes: MYT9412 LC variant
# B10: MYT11148 (antibody, V domains shown)
# VH: B1 VH with H26G
# VL: B1 VL with Q27H
# notes: MYT9412 LC variant
# B11: MYT11141 (antibody, V domains shown)
# VH: B1 VH with H26G, L109H
# VL: B1 VL
# notes: MYT9412 HC variant
# B12: MYT11127 (antibody, V domains shown)
# VH: B1 VH with H26G, G65H
# VL: B1 VL
# notes: MYT9412 HC variant
# B13: MYT11149 (antibody, V domains shown)
# VH: B1 VH with H26G
# VL: B1 VL with S28H
# notes: MYT9412 LC variant
# B14: MYT11123 (antibody, V domains shown)
# VH: B1 VH with H26G, S61H
# VL: B1 VL
# notes: MYT9412 HC variant
# B15: MYT11118 (antibody, V domains shown)
# VH: B1 VH with H26G, N56H
# VL: B1 VL
# notes: MYT9412 HC variant
# B16: MYT11135 (antibody, V domains shown)
# VH: B1 VH with H26G, Y103H
# VL: B1 VL
# notes: MYT9412 HC variant
# B17: MYT11110 (antibody, V domains shown)
# VH: B1 VH with H26G, M34H
# VL: B1 VL
# notes: MYT9412 HC variant
# B18: MYT11113 (antibody, V domains shown)
# VH: B1 VH with H26G, I51H
# VL: B1 VL
# notes: MYT9412 HC variant
# B19: MYT11138 (antibody, V domains shown)
# VH: B1 VH with H26G, G106H
# VL: B1 VL
# notes: MYT9412 HC variant
# B20: MYT11126 (antibody, V domains shown)
# VH: B1 VH with H26G, K64H
# VL: B1 VL
# notes: MYT9412 HC variant
# B21: MYT11122 (antibody, V domains shown)
# VH: B1 VH with H26G, A60H
# VL: B1 VL
# notes: MYT9412 HC variant
# B22: MYT11125 (antibody, V domains shown)
# VH: B1 VH with H26G, A63H
# VL: B1 VL
# notes: MYT9412 HC variant
# B23: MYT11147 (antibody, V domains shown)
# VH: B1 VH with H26G
# VL: B1 VL with S26H
# notes: MYT9412 LC variant
# B24: MYT11121 (antibody, V domains shown)
# VH: B1 VH with H26G, Y59H
# VL: B1 VL
# notes: MYT9412 HC variant
# B25: MYT11119 (antibody, V domains shown)
# VH: B1 VH with H26G, T57H
# VL: B1 VL
# notes: MYT9412 HC variant
# B26: MYT11076 (antibody, V domains shown)
# VH: EVQLVESGGGLVQPGGSLRLSCTASGLSLSSYWMSWVRQAPGKGLEWVGVISAGGNTYYANWAKGRFTISRDTSKNTVYLQMNSLRAEDTAVYFCARGDDGYTNAAYVSNLWGQGTLVTVSS
# VL: EIVMTQSPSTLSASVGDRVIITCQASQHISSWLSWYQQKPGKAPKLLIYKASTLASGVPSRFSGSGSGAEFTLTISSLQPDDFATYYCQSYFDSTTIAFGQGTKLTVL
# notes: MYT9361 LC variant
# B27: MYT11092 (antibody, V domains shown)
# VH: B26 VH
# VL: B26 VL with H28S, Y91H
# notes: MYT9361 LC variant
# B28: MYT11080 (antibody, V domains shown)
# VH: B26 VH
# VL: B26 VL with H28S, W32H
# notes: MYT9361 LC variant
# B29: MYT11088 (antibody, V domains shown)
# VH: B26 VH
# VL: B26 VL with H28S, A55H
# notes: MYT9361 LC variant
# B30: MYT11095 (antibody, V domains shown)
# VH: B26 VH
# VL: B26 VL with H28S, S94H
# notes: MYT9361 LC variant
# B31: MYT11087 (antibody, V domains shown)
# VH: B26 VH
# VL: B26 VL with H28S, L54H
# notes: MYT9361 LC variant
# B32: MYT11097 (antibody, V domains shown)
# VH: B26 VH
# VL: B26 VL with H28S, T96H
# notes: MYT9361 LC variant
# B33: MYT11090 (antibody, V domains shown)
# VH: B26 VH
# VL: B26 VL with H28S, Q89H
# notes: MYT9361 LC variant
# B34: MYT11085 (antibody, V domains shown)
# VH: B26 VH
# VL: B26 VL with H28S, S52H
# notes: MYT9361 LC variant
# B35: MYT11086 (antibody, V domains shown)
# VH: B26 VH
# VL: B26 VL with H28S, T53H
# notes: MYT9361 LC variant
# B36: MYT11099 (antibody, V domains shown)
# VH: B26 VH
# VL: B26 VL with H28S, A98H
# notes: MYT9361 LC variant
# B37: MYT11098 (antibody, V domains shown)
# VH: B26 VH
# VL: B26 VL with H28S, I97H
# notes: MYT9361 LC variant
# B38: MYT11089 (antibody, V domains shown)
# VH: B26 VH
# VL: B26 VL with H28S, S56H
# notes: MYT9361 LC variant
# B39: MYT11083 (antibody, V domains shown)
# VH: B26 VH
# VL: B26 VL with H28S, K50H
# notes: MYT9361 LC variant
# Biological target: T1, Human PTK7 Protein, His Tag, Acro …
# Test: BLI, anti-human Fc capture, 50 nM PTK7; 2 = substantially similar binding relative to parent
row,Binder,binding result
1,B1,binds
2,B2,binds
3,B3,binds
4,B4,binds
5,B5,binds
6,B6,binds
7,B7,binds
8,B8,binds
9,B9,binds
10,B10,binds
11,B11,binds
12,B12,binds
13,B13,binds
14,B14,binds
15,B15,binds
16,B16,binds
17,B17,binds
18,B18,binds
19,B19,binds
20,B20,binds
21,B21,binds
22,B22,binds
23,B23,binds
24,B24,binds
25,B25,binds

# Biological target: T2, Human PTK7 Protein, His Tag (Acro …)
# Test: BLI (Octet), antibody on anti-human Fc sensor, 50 nM PTK7; grade 2 = substantially similar binding relative to parent
row,Binder,binding result
1,B26,binds
2,B27,binds
3,B28,binds
4,B29,binds
5,B30,binds
6,B31,binds
7,B32,binds
8,B33,binds
9,B34,binds
10,B35,binds
11,B36,binds
12,B37,binds
13,B38,binds
14,B39,binds
